Source: paper PMC10397247

How the values were obtained:
Assay in all cases: two-hybrid library CCmax;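 also: natural log of median RNA to DNA barcode read ratio; higher means stronger binding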
[1] = target: T1, 4H2330-AA
T1 chain: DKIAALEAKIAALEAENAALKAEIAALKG

[2] = target: T2, 4H2343-AA; details: mean of both orientations
T2 chain: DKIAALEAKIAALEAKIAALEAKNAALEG

[3] = target: T3, 4H2389-AA; details: mean of both orientations
T3 chain: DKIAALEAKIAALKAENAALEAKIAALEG

[4] = target: T4, 4H2438-AA; details: mean of both orientations
T4 chain: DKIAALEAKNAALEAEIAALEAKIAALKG

[5] = target: T5, 4H2466-AA; details: mean of both orientations
T5 chain: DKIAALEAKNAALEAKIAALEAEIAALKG

[6] = target: T6, 4H2473-AA; details: mean of both orientations
T6 chain: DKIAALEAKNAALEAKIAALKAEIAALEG

[7] = target: T7, 4H249-AA; details: mean of both orientations
T7 chain: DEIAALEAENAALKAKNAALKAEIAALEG

[8] = target: T8, 4H2592-AA; details: mean of both orientations
T8 chain: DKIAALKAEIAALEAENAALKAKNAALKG

[9] = target: T9, 4H2649-AA; details: mean of both orientations
T9 chain: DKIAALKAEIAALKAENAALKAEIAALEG

[10] = target: T10, 4H2698-AA; details: mean of both orientations
T10 chain: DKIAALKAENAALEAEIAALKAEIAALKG

[11] = target: T11, 4H2725-AA; details: mean of both orientations
T11 chain: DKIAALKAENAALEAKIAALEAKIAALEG

[12] = target: T12, 4H2732-AA; details: mean of both orientations
T12 chain: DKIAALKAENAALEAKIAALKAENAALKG

[13] = target: T13, 4H2774-AA; details: mean of both orientations
T13 chain: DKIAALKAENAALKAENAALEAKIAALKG

[14] = target: T14, 4H2865-AA; details: mean of both orientations
T14 chain: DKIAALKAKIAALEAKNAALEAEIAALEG

[15] = target: T15, 4H2931-AA; details: mean of both orientations
T15 chain: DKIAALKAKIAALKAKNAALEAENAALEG

[16] = target: T16, 4H3001-AA; details: mean of both orientations
T16 chain: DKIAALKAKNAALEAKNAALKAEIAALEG

[17] = target: T17, 4H3009-AA; details: mean of both orientations
T17 chain: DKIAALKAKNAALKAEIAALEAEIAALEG

[18] = target: T18, 4H3015-AA; details: mean of both orientations
T18 chain: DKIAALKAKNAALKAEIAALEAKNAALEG

[19] = target: T19, 4H3016-AA; details: mean of both orientations
T19 chain: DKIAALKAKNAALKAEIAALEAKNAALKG

[20] = target: T20, 4H3073-AA; details: mean of both orientations
T20 chain: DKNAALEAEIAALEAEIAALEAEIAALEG

[21] = target: T21, 4H310-AA; details: mean of both orientations
T21 chain: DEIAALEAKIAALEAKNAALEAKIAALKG

[22] = target: T22, 4H3120-AA; details: mean of both orientations
T22 chain: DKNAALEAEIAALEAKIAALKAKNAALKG

[23] = target: T23, 4H3130-AA; details: mean of both orientations
T23 chain: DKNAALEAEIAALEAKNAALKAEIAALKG

[24] = target: T24, 4H3165-AA; details: mean of both orientations
T24 chain: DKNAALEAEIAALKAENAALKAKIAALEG

[25] = target: T25, 4H3381-AA; details: mean of both orientations
T25 chain: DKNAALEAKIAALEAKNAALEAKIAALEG

[26] = target: T26, 4H3395-AA; details: mean of both orientations
T26 chain: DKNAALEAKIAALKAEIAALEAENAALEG

[27] = target: T27, 4H3410-AA; details: mean of both orientations
T27 chain: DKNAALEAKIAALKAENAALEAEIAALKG

[28] = target: T28, 4H3438-AA; details: mean of both orientations
T28 chain: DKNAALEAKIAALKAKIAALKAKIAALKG

[29] = target: T29, 4H347-AA; details: mean of both orientations
T29 chain: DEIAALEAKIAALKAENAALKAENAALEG

[30] = target: T30, 4H3590-AA; details: mean of both orientations
T30 chain: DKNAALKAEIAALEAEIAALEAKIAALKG

[31] = target: T31, 4H3697-AA; details: mean of both orientations
T31 chain: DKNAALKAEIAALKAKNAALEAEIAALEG

[32] = target: T32, 4H3753-AA; details: mean of both orientations
T32 chain: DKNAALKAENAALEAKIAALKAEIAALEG

[33] = target: T33, 4H3865-AA; details: mean of both orientations
T33 chain: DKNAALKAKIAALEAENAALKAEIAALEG

[34] = target: T34, 4H406-AA; details: mean of both orientations
T34 chain: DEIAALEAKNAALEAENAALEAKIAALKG

[35] = target: T35, 4H452-AA; details: mean of both orientations
T35 chain: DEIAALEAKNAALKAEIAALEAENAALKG

[36] = target: T36, 4H458-AA; details: mean of both orientations
T36 chain: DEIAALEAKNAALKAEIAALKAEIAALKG

[37] = target: T37, 4H485-AA; details: mean of both orientations
T37 chain: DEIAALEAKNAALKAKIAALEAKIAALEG

[38] = target: T38, 4H536-AA; details: mean of both orientations
T38 chain: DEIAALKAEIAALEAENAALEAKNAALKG

[39] = target: T39, 4H56-AA; details: mean of both orientations
T39 chain: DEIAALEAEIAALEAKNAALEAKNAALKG

[40] = target: T40, 4H570-AA; details: mean of both orientations
T40 chain: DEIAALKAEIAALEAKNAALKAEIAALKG

[41] = target: T41, 4H629-AA; details: mean of both orientations
T41 chain: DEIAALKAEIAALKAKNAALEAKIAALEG

[42] = target: T42, 4H710-AA; details: mean of both orientations
T42 chain: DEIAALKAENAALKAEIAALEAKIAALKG

[43] = target: T43, 4H745-AA; details: mean of both orientations
T43 chain: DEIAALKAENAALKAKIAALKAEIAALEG

[44] = target: T44, 4H797-AA; details: mean of both orientations
T44 chain: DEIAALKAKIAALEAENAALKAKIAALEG

[45] = target: T45, 4H850-AA; details: mean of both orientations
T45 chain: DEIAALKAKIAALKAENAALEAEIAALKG

[46] = target: T46, 4H891-AA; details: mean of both orientations
T46 chain: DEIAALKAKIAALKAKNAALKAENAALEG

[47] = target: T47, 4H909-AA; details: mean of both orientations
T47 chain: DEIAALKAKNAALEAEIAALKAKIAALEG

[48] = target: T48, 4H930-AA; details: mean of both orientations
T48 chain: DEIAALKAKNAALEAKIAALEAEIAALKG

[49] = target: T49, 4H94-AA; details: mean of both orientations
T49 chain: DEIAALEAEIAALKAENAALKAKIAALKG

[50] = target: T50, 4H_APH; details: mean of both orientations
T50 chain: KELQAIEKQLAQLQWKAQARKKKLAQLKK

[51] = target: T51, 4H_BCR; details: mean of both orientations
T51 chain: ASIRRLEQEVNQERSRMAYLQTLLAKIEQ

[52] = target: 4H_GCN4; details: mean of both orientations
Chain of 4H_GCN4 (chain, as listed by the source): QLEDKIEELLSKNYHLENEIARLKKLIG

[53] = target: GCN2_T; details: mean of both orientations

B1: 4H2330-AA (peptide)
chain: DKIAALEAKIAALEAENAALKAEIAALKG
An interaction score [1] of 2.14, an interaction score [2] of -1.3 and an interaction score [3] of -0.00244 were found for B1 in this work. For the same binder, the interaction score [4] was -0.853, the interaction score [5] was -1.14 and the interaction score [6] was -0.502. The interaction score [7] was -1.48, the interaction score [8] was -0.144 and the interaction score [9] was 0.31. It also gave an interaction score [10] of -1.05, an interaction score [11] of -1.57 and an interaction score [12] of -1.45. The interaction score [13] was -1.55, the interaction score [14] was -0.443 and the interaction score [15] was -1.63. For the same binder, the interaction score [16] was -1.21, the interaction score [17] was -1.35 and the interaction score [18] was -1.54. The interaction score [19] was -1.44, the interaction score [20] was -1.5 and the interaction score [21] was -0.633. It also gave an interaction score [22] of -1.29, an interaction score [23] of 0.306 and an interaction score [24] of -1.39. The interaction score [25] was -1.67, the interaction score [26] was -1.56 and the interaction score [27] was 0.287. For the same binder, the interaction score [28] was -1.59, the interaction score [29] was -0.642 and the interaction score [30] was -1.06. It also gave an interaction score [31] of -1.56, an interaction score [32] of -1.31 and an interaction score [33] of 0.945. The interaction score [34] was -0.544, the interaction score [35] was -1.85 and the interaction score [36] was -1.07. The interaction score [37] was -1.35, the interaction score [38] was -1.33 and the interaction score [39] was -1.47. The interaction score [40] was 0.717, the interaction score [41] was -1.21 and the interaction score [42] was -1.49. For the same binder, the interaction score [43] was -1.42, the interaction score [44] was -0.788 and the interaction score [45] was 1.43. The interaction score [46] was -1.54, the interaction score [47] was -1.17 and the interaction score [48] was -1.22. It also gave an interaction score [49] of 0.579, an interaction score [50] of -2.24 and an interaction score [51] of -2.26. It also gave an interaction score [52] of -1.88 and an interaction score [53] of -1.77.
